# Like-named read-outs stand apart in the source and are kept apart here.
# Experiments:
# HLA-DR DRB1*0101 (human) [1] = test: competition assay, purified HLA, inhibition of 125I-labelled reference peptide
# HLA-DR DRB1*0301 (human) [2] = test: as above
# HLA-DR DRB1*0401 (human) [3] = test: as above
# HLA-DR DRB1*0404 (human) [4] = test: as above
# HLA-DR DRB1*0405 (human) [5] = test: as above
# HLA-DR DRB1*1302 (human) [6] = test: as above
# [7] = biological target: purified HLA DRB1*0101 (human); test: competition with 125I-labelled peptide for purified HLA
# [8] = biological target: purified HLA DRB1*0401 (human); test: as above
# [9] = biological target: purified HLA DRB1*1302 (human); test: as above
# [10] = biological target: purified HLA DRB1*1501 (human); test: as above
# [11] = biological target: purified HLA DRB4*0101 (human); test: as above
# [12] = biological target: purified HLA DRB1*0101 (human); test: competition with 125I-labelled reference peptide, purified HLA
# [13] = biological target: purified HLA DRB1*0301 (human); test: as above
# [14] = biological target: purified HLA DRB1*0401 (human); test: as above
# [15] = biological target: purified HLA DRB1*0404 (human); test: as above
# [16] = biological target: purified HLA DRB1*0405 (human); test: as above
# [17] = biological target: purified HLA DRB1*1302 (human); test: as above
# HLA-DR DRB1*0101 (human) [18] = test: competition with 125I-labelled peptide, purified HLA
# HLA-DR DRB1*0401 (human) [19] = test: as above
# HLA-DR DRB1*0404 (human) [20] = test: as above
# HLA-DR DRB1*0701 (human) = test: as above
# HLA-DR DRB1*0802 (human) = test: as above
# HLA-DR DRB1*1101 (human) = test: as above
# HLA-DR DRB1*1302 (human) [21] = test: as above
# HLA-DR DRB1*1501 (human) [22] = test: as above
# HLA-DR DRB4*0101 (human) [23] = test: as above
# HLA-DR DRB5*0101 (human) = test: as above
# HLA-DR DRB1*0101 (human) [24] = test: competition with 125I-labelled reference peptide on purified HLA-DR
# HLA-DR DRB1*0301 (human) [25] = test: as above
# HLA-DR DRB1*0401 (human) [26] = test: as above
# HLA-DR DRB1*1302 (human) [27] = test: as above
# HLA-DR DRB1*1501 (human) [28] = test: as above
# HLA-DR DRB4*0101 (human) [29] = test: as above
# HLA-DR DRB1*0301 (human) [30] = test: competition with 125I-labelled peptide, purified HLA
# HLA-DR DRB1*0405 (human) [31] = test: as above
# HLA-DR DRB1*0101 (human) [32] = biological target: HLA-DR DRB1*0101 (human)
# HLA-DR DRB4*0101 (human) [33] = biological target: HLA-DR DRB4*0101 (human)
# HLA-DR DRB1*0301 (human) [34] = test: competition vs 125I-labeled peptide, purified HLA
# HLA-DR DRB1*0401 (human) [35] = test: competition vs 125I-labeled peptide, purified HLA
# HLA-DR DRB1*1302 (human) [36] = test: competition vs 125I-labeled peptide, purified HLA
# HLA-DR DRB1*1501 (human) [37] = test: competition vs 125I-labeled peptide, purified HLA
# HLA-DR DRB4*0101 (human) [38] = test: competition vs 125I-labeled peptide, purified HLA
# [39] = biological target: purified HLA-DR DRB1*0101 (human); test: competition with 125I-labelled reference peptide, purified HLA
# [40] = biological target: purified HLA-DR DRB1*0301 (human); test: as above
# [41] = biological target: purified HLA-DR DRB1*0401 (human); test: as above
# [42] = biological target: purified HLA-DR DRB1*0404 (human); test: as above
# [43] = biological target: purified HLA-DR DRB1*0405 (human); test: as above
# [44] = biological target: purified HLA-DR DRB1*1101 (human); test: as above
# [45] = biological target: purified HLA-DR DRB1*1302 (human); test: as above
# [46] = biological target: purified HLA-DR DRB1*1501 (human); test: as above
# [47] = biological target: purified HLA-DR DRB4*0101 (human); test: as above
# [48] = biological target: purified HLA-DR DRB5*0101 (human); test: as above
# HLA-DR DRB1*0101 (human) [49] = test: competition vs 125I-labeled peptide, purified HLA
binder,measurement,setting,value
GSYFFGDNAEEYDN (modifications not checked) [Flu.NP.488],IC50,HLA-DR DRB1*0101 (human) [1],> 10 µM
same,IC50,HLA-DR DRB1*0301 (human) [2],0.139 µM
same,IC50,HLA-DR DRB1*0401 (human) [3],1.95 µM
same,IC50,HLA-DR DRB1*0404 (human) [4],> 10 µM
same,IC50,HLA-DR DRB1*0405 (human) [5],0.065 µM
same,IC50,HLA-DR DRB1*1302 (human) [6],> 10 µM
VERILKEESDEALKM (modifications not checked) [Flu.NS1.68],IC50,HLA-DR DRB1*0101 (human) [1],5.19 µM
same,IC50,HLA-DR DRB1*0401 (human) [3],0.679 µM
same,IC50,HLA-DR DRB1*0404 (human) [4],0.572 µM
same,IC50,HLA-DR DRB1*0405 (human) [5],> 10 µM
same,IC50,HLA-DR DRB1*1302 (human) [6],5.07 µM
ILSIYSTVASSLALAI (modifications not checked) [Flu.HA.532 peptide …],IC50,[7],0.011 µM
same,IC50,[8],0.091 µM
same,IC50,[9],0.0076 µM
same,IC50,[10],0.02 µM
same,IC50,[11],0.824 µM
IYQILSIYSTVASSLA (modifications not checked) [Flu.HA.529 peptide …],IC50,[7],0.055 µM
same,IC50,[8],0.089 µM
same,IC50,[9],0.013 µM
same,IC50,[10],0.0047 µM
same,IC50,[11],0.018 µM
AGLLVSDGGPNLYNI (modifications not checked) [Flu.PB1.590],IC50,[12],8.12 µM
same,IC50,[13],0.107 µM
same,IC50,[14],3 µM
same,IC50,[15],3.49 µM
same,IC50,[16],> 10 µM
same,IC50,[17],0.105 µM
QKAMMDQVRESRNPG (modifications not checked) [Flu.NP.238],IC50,HLA-DR DRB1*0101 (human) [1],17.6 µM
same,IC50,HLA-DR DRB1*0301 (human) [2],0.45 µM
same,IC50,HLA-DR DRB1*0401 (human) [3],0.856 µM
same,IC50,HLA-DR DRB1*0404 (human) [4],1.83 µM
same,IC50,HLA-DR DRB1*0405 (human) [5],13.1 µM
same,IC50,HLA-DR DRB1*1302 (human) [6],10.5 µM
TKKMVTQRTIGKKKQ (modifications not checked) [Flu.PB1.199],IC50,HLA-DR DRB1*0101 (human) [18],1.15 µM
same,IC50,HLA-DR DRB1*0401 (human) [19],0.071 µM
same,IC50,HLA-DR DRB1*0404 (human) [20],0.062 µM
same,IC50,HLA-DR DRB1*0701 (human),14.1 µM
same,IC50,HLA-DR DRB1*0802 (human),0.055 µM
same,IC50,HLA-DR DRB1*1101 (human),0.449 µM
same,IC50,HLA-DR DRB1*1302 (human) [21],6.12 µM
same,IC50,HLA-DR DRB1*1501 (human) [22],9.71 µM
same,IC50,HLA-DR DRB4*0101 (human) [23],0.057 µM
same,IC50,HLA-DR DRB5*0101 (human),0.0041 µM
LILYDKEEIRRIWRQ (modifications not checked) [Flu.NP.111],IC50,HLA-DR DRB1*0101 (human) [1],7.18 µM
same,IC50,HLA-DR DRB1*0301 (human) [2],0.022 µM
same,IC50,HLA-DR DRB1*0401 (human) [3],12.4 µM
same,IC50,HLA-DR DRB1*0404 (human) [4],0.262 µM
same,IC50,HLA-DR DRB1*0405 (human) [5],7.5 µM
same,IC50,HLA-DR DRB1*1302 (human) [6],3.1 µM
WAVYSKDNSIRIGSK (modifications not checked) [Flu.NA.77 peptide …],IC50,HLA-DR DRB1*0101 (human) [24],5.4 µM
same,IC50,HLA-DR DRB1*0301 (human) [25],0.291 µM
same,IC50,HLA-DR DRB1*0401 (human) [26],1.6 µM
same,IC50,HLA-DR DRB1*1302 (human) [27],0.036 µM
same,IC50,HLA-DR DRB1*1501 (human) [28],0.642 µM
same,IC50,HLA-DR DRB4*0101 (human) [29],19.5 µM
YIQMCTELKLSDYEG (modifications not checked) [Flu.NP.43],IC50,HLA-DR DRB1*0101 (human) [18],0.32 µM
same,IC50,HLA-DR DRB1*0301 (human) [30],0.368 µM
same,IC50,HLA-DR DRB1*0401 (human) [19],0.392 µM
same,IC50,HLA-DR DRB1*0404 (human) [20],1.64 µM
same,IC50,HLA-DR DRB1*0405 (human) [31],2.69 µM
same,IC50,HLA-DR DRB1*0701 (human),5.37 µM
same,IC50,HLA-DR DRB1*1101 (human),5.84 µM
same,IC50,HLA-DR DRB1*1501 (human) [22],0.594 µM
TQGALLNDKHSNGTVKD (modifications not checked) [Flu.NA.115 peptide …],IC50,HLA-DR DRB1*0101 (human) [32],> 10 µM
same,IC50,HLA-DR DRB4*0101 (human) [33],> 10 µM
same,IC50,HLA-DR DRB1*0301 (human) [25],0.177 µM
same,IC50,HLA-DR DRB1*0401 (human) [26],19 µM
same,IC50,HLA-DR DRB1*1302 (human) [27],0.468 µM
same,IC50,HLA-DR DRB1*1501 (human) [28],0.822 µM
NNMINNDLGPATAQM (modifications not checked) [Flu.PB1.535],IC50,[12],3.08 µM
same,IC50,[13],0.527 µM
same,IC50,[14],0.798 µM
same,IC50,[15],1.83 µM
same,IC50,[16],> 10 µM
same,IC50,[17],0.477 µM
VSLVKSDQICIGYHA (modifications not checked) [Flu.HA.11],IC50,HLA-DR DRB1*0101 (human) [32],> 10 µM
same,IC50,HLA-DR DRB1*0301 (human) [34],0.511 µM
same,IC50,HLA-DR DRB1*0401 (human) [35],0.513 µM
same,IC50,HLA-DR DRB1*1302 (human) [36],0.175 µM
same,IC50,HLA-DR DRB1*1501 (human) [37],14.5 µM
same,IC50,HLA-DR DRB4*0101 (human) [38],0.032 µM
SLMLQIGNMISIWVSHS (modifications not checked) [Flu.NA.21 peptide …],IC50,[7],0.036 µM
same,IC50,[8],0.48 µM
same,IC50,[9],0.044 µM
same,IC50,[10],0.034 µM
same,IC50,[11],0.746 µM
same,IC50,HLA-DR DRB1*0101 (human) [24],0.036 µM
same,IC50,HLA-DR DRB1*0401 (human) [26],0.48 µM
same,IC50,HLA-DR DRB1*1302 (human) [27],0.044 µM
same,IC50,HLA-DR DRB1*1501 (human) [28],0.034 µM
same,IC50,HLA-DR DRB4*0101 (human) [29],0.746 µM
EECLINDPWVLLNAS (modifications not checked) [Flu.PA.694],IC50,HLA-DR DRB1*0101 (human) [18],0.034 µM
same,IC50,HLA-DR DRB1*0301 (human) [30],0.618 µM
same,IC50,HLA-DR DRB1*0401 (human) [19],1.22 µM
same,IC50,HLA-DR DRB1*0404 (human) [20],0.183 µM
same,IC50,HLA-DR DRB1*0405 (human) [31],15 µM
same,IC50,HLA-DR DRB1*1302 (human) [21],0.246 µM
LEGFSAESRKLLLVV (modifications not checked) [Flu.PA.658],IC50,HLA-DR DRB1*0101 (human) [18],0.012 µM
same,IC50,HLA-DR DRB1*0301 (human) [30],0.661 µM
same,IC50,HLA-DR DRB1*0401 (human) [19],0.861 µM
same,IC50,HLA-DR DRB1*0404 (human) [20],1.15 µM
same,IC50,HLA-DR DRB1*0405 (human) [31],3.86 µM
same,IC50,HLA-DR DRB1*1302 (human) [21],2.27 µM
LIQLIVSGRDEQSIA (modifications not checked) [Flu.PB2.384],IC50,[39],3.23 µM
same,IC50,[40],0.053 µM
same,IC50,[41],0.083 µM
same,IC50,[42],0.09 µM
same,IC50,[43],0.46 µM
same,IC50,[44],2.01 µM
same,IC50,[45],4.68 µM
same,IC50,[46],0.42 µM
same,IC50,[47],0.0099 µM
same,IC50,[48],1.72 µM
KSSFFRNVVWLIKKN (modifications not checked) [Flu.HA.156],IC50,HLA-DR DRB4*0101 (human) [33],> 10 µM
same,IC50,HLA-DR DRB1*0101 (human) [49],0.046 µM
same,IC50,HLA-DR DRB1*0401 (human) [35],0.474 µM
same,IC50,HLA-DR DRB1*1302 (human) [36],0.02 µM
same,IC50,HLA-DR DRB1*1501 (human) [37],0.832 µM

# Reference: patent US20080032921A1
